Test results from paper PMC4753479, “A CAPS-based binding assay provides semi-quantitative validation of protein-DNA interactions”.

Legend:
rOsVAL2-B3 [1] = target: T1, rOsVAL2-B3 (rice, UniProt Q6Z3U3 144-517); experiment: restriction protection (CBA); settings: NsiI, same inhibitory effect as 5 ug rOsGD1-B3, 150 ng DNA in 15 ul, CBA: restriction enzyme buffer, 1-7 ug protein, 30 min at 37 C then 1 h digestion at 37 C, pull-down: 1 ug biotinylated DNA, 12 h …
T1 sequence: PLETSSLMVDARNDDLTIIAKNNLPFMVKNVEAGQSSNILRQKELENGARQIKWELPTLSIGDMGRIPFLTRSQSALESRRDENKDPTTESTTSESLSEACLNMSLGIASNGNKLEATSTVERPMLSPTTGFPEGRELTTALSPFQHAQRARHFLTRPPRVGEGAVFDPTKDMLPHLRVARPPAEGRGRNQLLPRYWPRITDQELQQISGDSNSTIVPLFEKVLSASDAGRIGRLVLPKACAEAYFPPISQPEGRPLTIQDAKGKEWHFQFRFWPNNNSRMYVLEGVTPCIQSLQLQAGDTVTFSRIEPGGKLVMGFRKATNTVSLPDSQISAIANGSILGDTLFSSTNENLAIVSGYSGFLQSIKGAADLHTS

rOsGD1-B3 [2] = target: T2, rOsGD1-B3 (rice, UniProt Q0D5G4 342-640); experiment: restriction protection (CBA); settings: 150 ng DNA in 15 ul, CBA: restriction enzyme buffer, 1-7 ug protein, 30 min at 37 C then 1 h digestion at 37 C, pull-down: 1 ug biotinylated DNA, 12 h …
T2 sequence: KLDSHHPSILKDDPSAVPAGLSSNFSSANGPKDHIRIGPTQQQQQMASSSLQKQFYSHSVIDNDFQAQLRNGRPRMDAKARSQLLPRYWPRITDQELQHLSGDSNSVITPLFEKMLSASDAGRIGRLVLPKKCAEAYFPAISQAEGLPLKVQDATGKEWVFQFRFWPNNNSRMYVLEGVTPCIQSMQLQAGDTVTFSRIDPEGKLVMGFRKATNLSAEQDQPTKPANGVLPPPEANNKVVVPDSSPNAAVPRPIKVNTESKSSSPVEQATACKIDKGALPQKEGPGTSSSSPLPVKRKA

rOsGD1-B3 [3] = target: T2, rOsGD1-B3; experiment: pull-down; weaker than rOsVAL2-B3; CBA: restriction enzyme buffer, 150 ng DNA, 1-7 ug protein, 15 ul, 30 min at 37 C then 1 h digestion at 37 C; pull-down: 1 ug biotinylated DNA, 12 h, streptavidin-agarose, wash TBS (20 mM Tris, 150 mM NaCl), competitors 5x/10x/20x; settings: protein: recombinant; tags: 6xHis (pGoldI); label: 5' biotin, both strands; blunt
rOsVAL2-B3 [4] = target: T1, rOsVAL2-B3; experiment: pull-down; stronger than rOsGD1-B3; CBA: restriction enzyme buffer, 150 ng DNA, 1-7 ug protein, 15 ul, 30 min at 37 C then 1 h digestion at 37 C; pull-down: 1 ug biotinylated DNA, 12 h, streptavidin-agarose, wash TBS (20 mM Tris, 150 mM NaCl), competitors 5x/10x/20x; settings: protein: recombinant; tags: 6xHis (pGoldI); label: 5' biotin, both strands; blunt

WT RY-DNA 420 bp was tested, and the binding signal (rOsVAL2-B3 [1]) was 3 µg protein and the protein amount for inhibition of NsiI digestion (rOsGD1-B3 [2]) was 5 µg protein.

B1: WT RY pull-down probe (dsDNA)
DNA 1: TAATTGCATGCATATATGCACGC
DNA 2: GCGTGCATATATGCATGCAATTA
B1: binds (rOsGD1-B3 [3]); binds (rOsVAL2-B3 [4]).
